The values below are quoted from earlier work in patent US9394339B2, “Stabilized formulations of peptides and proteins protecting against non-enzymatic degradation” (Lyotropic Therapeutics, Inc., priority 2007, dated 2016).

The labels stand for the following.
B1: Dihydropteridine reductase (1HDR): human protein (protein, UniProt P09417 2-244, looked up)
Dihydropteridine reductase: AAAAAAGEARRVLVYGGRGALGSRCVQAFRARNWWVASVDVVENEEASASIIVKMTDSFTEQADQVTAEVGKLLGEEKVDAILCVAGGWAGGNAKSKSLFKNCDLMWKQSIWTSTISSHLATKHLKEGGLLTLAGAKAALDGTPGMIGYGMAKGAVHQLCQSLAGKNSGMPPGAAAIAVLPVTLDTPMNRKSMPEADFSSWTPLEFLVETFHDWITGKNRPSSGSLIQVVTTEGRTELTPAYF
B2: Purine nucleoside phosphorylase (1ULA): human protein (protein, UniProt P00491 1-289, looked up)
Purine nucleoside …: MENGYTYEDYKNTAEWLLSHTKHRPQVAIICGSGLGGLTDKLTQAQIFDYGEIPNFPRSTVPGHAGRLVFGFLNGRACVMMQGRFHMYEGYPLWKVTFPVRVFHLLGVDTLVVTNAAGGLNPKFEVGDIMLIRDHINLPGFSGQNPLRGPNDERFGDRFPAMSDAYDRTMRQRALSTWKQMGEQRELQEGTYVMVAGPSFETVAECRVLQKLGADAVGMSTVPEVIVARHCGLRVFGFSLITNKVIMDYESLEKANHEEVLAAGKQAAQKLEQFVSILMASIPLPDKAS
B3: Branched-chain -keto acid dehydrogenase (1DTW): human protein (protein, UniProt P12694 46-445; P21953 51-392, looked up)
2-oxoisovalerate … 1: SSLDDKPQFPGASAEFIDKLEFIQPNVISGIPIYRVMDRQGQIINPSEDPHLPKEKVLKLYKSMTLLNTMDRILYESQRQGRISFYMTNYGEEGTHVGSAAALDNTDLVFGQYREAGVLMYRDYPLELFMAQCYGNISDLGKGRQMPVHYGCKERHFVTISSPLATQIPQAVGAAYAAKRANANRVVICYFGEGAASEGDAHAGFNFAATLECPIIFFCRNNGYAISTPTSEQYRGDGIAARGPGYGIMSIRVDGNDVFAVYNATKEARRRAVAENQPFLIEAMTYRIGHHSTSDDSSAYRSVDEVNYWDKQDHPISRLRHYLLSQGWWDEEQEKAWRKQSRRKVMEAFEQAERKPKPNPNLLFSDVYQEMPAQLRKQQESLARHLQTYGEHYPLDHFDK
2-oxoisovalerate … 2: VAHFTFQPDPEPREYGQTQKMNLFQSVTSALDNSLAKDPTAVIFGEDVAFGGVFRCTVGLRDKYGKDRVFNTPLCEQGIVGFGIGIAVTGATAIAEIQFADYIFPAFDQIVNEAAKYRYRSGDLFNCGSLTIRSPWGCVGHGALYHSQSPEAFFAHCPGIKVVIPRSPFQAKGLLLSCIEDKNPCIFFEPKILYRAAAEEVPIEPYNIPLSQAEVIQEGSDVTLVAWGTQVHVIREVASMAKEKLGVSCEVIDLRTIIPWDVDTICKSVIKTGRLLISHEAPLTGGFASEISSTVQEECFLNLEAPISRVCGYDTPFPHIFEPFYIPDKWKCYDALRKMINY
B4: Carbonic anhydrase IV (1ZNC): human protein (protein, UniProt P22748 19-284, looked up)
Carbonic anhydrase 4: AESHWCYEVQAESSNYPCLVPVKWGGNCQKDRQSPINIVTTKAKVDKKLGRFFFSGYDKKQTWTVQNNGHSVMMLLENKASISGGGLPAPYQAKQLHLHWSDLPYKGSEHSLDGEHFAMEMHIVHEKEKGTSRNVKEAQDPEDEIAVLAFLVEAGTQVNEGFQPLVEALSNIPKPEMSTTMAESSLLDLLPKEEKLRHYFRYLGSLTTPTCDEKVVWTVFREPIQLHREQILAFSQKLYYDKEQTVSMKDNVRPLQQLGQRTVIKS

The conditions of this data set: aqueous solution, pH 7.4, 37° C., Tris-HCl buffer.
For the molecule B1, the “T1/10 (time to 10% degradation by deamidation)” value is 15 days.
For B2, the “T1/10 (time to 10% degradation by deamidation)” value is 0.27 days.
As to B3, the “T1/10 (time to 10% degradation by deamidation)” value was 12 days.
Take B4: the “T1/10 (time to 10% degradation by deamidation)” value is listed as 11 days.
